The supplement of paper PMC7877785
± gives the uncertainty stated by the source.

Test: self-splicing fitness, log relative to wild type (ln ratio); higher = more splicing; Tetrahymena group I intron in knt gene, E. coli kanamycin selection, DiMSum; sequences stand for … in CUCUCU…GGAGGGAAAAGUUAUCAGGCAUGCACCUGGUAGCUAGUCUUUAAACCAAUAGAUUGCAUCGGUUUAAAAGGCAAGACCGUCAAAUUGCGGGAAAGGGGUCAACAGCCGUUCAGUACCAAGUCUCAGGGGAAACUUUGAGAUGGCCUUGCAAAGGGUAUGGUAAUAAGCUGACGGACAUGGUCCUAACCACGCAGCCAAGUCCUAAGUCAACAGAUCUUCUGUUGAUAUGGAUGCAGUUCACAGACUAAAUGUCGGUCGGGGAAGAUGUAUUCUUCUCAUAAGAUAUAGUCGGACCUCUCCUUAAUGGGAGCUAGCGGAUGAAGUGAUGCAACACUGGAGCCGCUGGGAACUAAUUUGUAUGCGAAAGUAUAUUGAUUAGUUUUGGAGUACUCGUGGUCG
Summary of the method: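 Library with all eight P1ex-region intron nucleotides randomised, intron inside the knt kanamycin-resistance gene on pET-22b(+), in E. coli BL21(DE3). Cells grew overnight at 37°C or 30°C on LB agar with or without 25 μg/mL kanamycin (plus 100 μg/mL carbenicillin, 50 μM IPTG, 0.2% rhamnose), in six replicate transformations. Pooled colonies were amplicon-sequenced on Illumina HiSeq 2500. DiMSum fitness is the error-weighted combination of wild-type-normalised replicate fold changes, kanamycin versus none.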

Sequence	self-splicing fitness (ln) (30 °C)	self-splicing fitness (ln) (37 °C)
UUCCAGCAAUAUUACGGCCA	-1.08 ± 0.13	0.682 ± 0.16
UUCCAGCAAUAUUACGGCUC	-2.48 ± 0.21	-0.924 ± 0.21
UUCCAGCAAUAUUACGGGCC	-3.91 ± 0.3	-2.34 ± 0.33
UUCCAGCAAUAUUACGGGGC	-3.09 ± 0.32	-2.82 ± 0.34
UUCCAGCAAUAUUACGUACG	-0.796 ± 0.1	-0.902 ± 0.16
UUCCAGCAAUAUUACGUCCA	-1.05 ± 0.12	-0.679 ± 0.14
UUCCAGCAAUAUUACGUCCC	-2 ± 0.33	-1.84 ± 0.3
UUCCAGCAAUAUUACGUGGC	-3.11 ± 0.15	-3.15 ± 0.24
UUCGAGCAAUAUUACGACGG	-1.24 ± 0.11	-0.685 ± 0.1
UUCGAGCAAUAUUACGACUG	-3.35 ± 0.34	-1.48 ± 0.26
UUCGAGCAAUAUUACGAGAU	-3.95 ± 0.35	-2.34 ± 0.31
UUCGAGCAAUAUUACGAUAU	-3.85 ± 0.33	-2.51 ± 0.49
UUCGAGCAAUAUUACGAUCA	-1.89 ± 0.2	-0.432 ± 0.14
UUCGAGCAAUAUUACGCAAA	-0.773 ± 0.28	-1.92 ± 0.26
UUCGAGCAAUAUUACGCACC	-3.33 ± 0.29	-1.91 ± 0.24
UUCGAGCAAUAUUACGCAUC	-2.83 ± 0.39	–
UUCGAGCAAUAUUACGCCAA	-2.89 ± 0.48	-2.07 ± 0.27
UUCGAGCAAUAUUACGCGUA	-1.94 ± 0.14	-1.51 ± 0.12
UUCGAGCAAUAUUACGCGUC	-2.99 ± 0.23	-2.34 ± 0.37
UUCGAGCAAUAUUACGCGUU	-1.87 ± 0.22	-1.88 ± 0.27
UUCGAGCAAUAUUACGCUCU	-3.38 ± 0.15	-2.43 ± 0.14
UUCGAGCAAUAUUACGCUUA	-2.79 ± 0.21	-1.58 ± 0.18
UUCGAGCAAUAUUACGGAAA	-1.51 ± 0.18	-2.84 ± 0.32
UUCGAGCAAUAUUACGGAAG	-2.42 ± 0.22	-2.12 ± 0.4
UUCGAGCAAUAUUACGGCGC	-2.99 ± 0.34	-2.36 ± 0.39
UUCGAGCAAUAUUACGGGUA	-1.16 ± 0.18	-1.36 ± 0.15

Sequence	self-splicing fitness (ln) (30 °C)	self-splicing fitness (ln) (37 °C)
UUCGAGCAAUAUUACGUCCA	-2.49 ± 0.31	-1.75 ± 0.44
UUCGAGCAAUAUUACGUCUA	-1.29 ± 0.15	-0.414 ± 0.13
UUCGAGCAAUAUUACGUUAU	-2.58 ± 0.2	-2.82 ± 0.38
UUCGAGCAAUAUUACGUUCC	-2.94 ± 0.26	-1.19 ± 0.3
UUCGAGCAAUAUUACGUUUU	-3.49 ± 0.18	-2.77 ± 0.2
UUCUAGCAAUAUUACGAAUG	-2.45 ± 0.4	–
UUCUAGCAAUAUUACGACCG	-1.13 ± 0.26	-1.07 ± 0.42
UUCUAGCAAUAUUACGACUG	-1.64 ± 0.17	-0.702 ± 0.2
UUCUAGCAAUAUUACGAGUA	-0.88 ± 0.15	-0.0809 ± 0.13
UUCUAGCAAUAUUACGCACA	-0.654 ± 0.27	-0.205 ± 0.23
UUCUAGCAAUAUUACGCAGU	-3.89 ± 0.43	-3.11 ± 0.35
UUCUAGCAAUAUUACGCAUU	-1.95 ± 0.29	-1.5 ± 0.35
UUCUAGCAAUAUUACGCUGC	–	-2.1 ± 0.38
UUCUAGCAAUAUUACGGAUA	-1.44 ± 0.17	-0.551 ± 0.15
UUCUAGCAAUAUUACGGCCU	-3.05 ± 0.38	–
UUCUAGCAAUAUUACGGGGA	-0.859 ± 0.21	-0.995 ± 0.21
UUCUAGCAAUAUUACGGUGU	-3.4 ± 0.32	-2.91 ± 0.37
UUCUAGCAAUAUUACGUCCG	-1.45 ± 0.25	-0.81 ± 0.31
UUCUAGCAAUAUUACGUCGG	-3.54 ± 0.26	-3.1 ± 0.29
UUCUAGCAAUAUUACGUGAC	-3.69 ± 0.31	-1.61 ± 0.24
UUCUAGCAAUAUUACGUGGC	-3.1 ± 0.24	–
UUCUAGCAAUAUUACGUGUC	-3.35 ± 0.19	-3.01 ± 0.21
UUGAAGCAAUAUUACGAAUA	-0.868 ± 0.12	-1.13 ± 0.15
UUGAAGCAAUAUUACGACCC	-3.15 ± 0.28	-0.772 ± 0.17
UUGAAGCAAUAUUACGACCG	-0.105 ± 0.28	0.113 ± 0.28
UUGAAGCAAUAUUACGACCU	0.0483 ± 0.11	0.587 ± 0.14

Sequence	self-splicing fitness (ln) (30 °C)	self-splicing fitness (ln) (37 °C)
UUGAAGCAAUAUUACGACUG	-0.106 ± 0.073	0.183 ± 0.097
UUGAAGCAAUAUUACGAGAG	-1.5 ± 0.12	-0.926 ± 0.14
UUGAAGCAAUAUUACGAGCG	-0.107 ± 0.089	0.65 ± 0.14
UUGAAGCAAUAUUACGAUCG	-0.0761 ± 0.14	0.264 ± 0.19
UUGAAGCAAUAUUACGAUGU	-1.61 ± 0.067	-0.962 ± 0.11
UUGAAGCAAUAUUACGCAUU	-3.34 ± 0.23	-3.18 ± 0.25
UUGAAGCAAUAUUACGCCAG	-0.461 ± 0.14	0.214 ± 0.21
UUGAAGCAAUAUUACGCUCU	-1.82 ± 0.12	-0.916 ± 0.12
UUGAAGCAAUAUUACGCUGA	-1.61 ± 0.15	-0.574 ± 0.19
UUGAAGCAAUAUUACGGAGC	-2.81 ± 0.21	-2.5 ± 0.41
UUGAAGCAAUAUUACGGCAC	-0.928 ± 0.13	-0.814 ± 0.17
UUGAAGCAAUAUUACGGUAA	-0.968 ± 0.1	-0.399 ± 0.12
UUGAAGCAAUAUUACGGUAU	-2.49 ± 0.11	-1.5 ± 0.18
UUGAAGCAAUAUUACGGUCU	-0.0588 ± 0.058	-0.0885 ± 0.075
UUGAAGCAAUAUUACGGUGU	-3.13 ± 0.17	-1.16 ± 0.15
UUGAAGCAAUAUUACGUACC	-3.61 ± 0.41	-1.07 ± 0.35
UUGAAGCAAUAUUACGUAGA	-1.28 ± 0.12	-0.894 ± 0.15
UUGCAGCAAUAUUACGAACU	-2.25 ± 0.23	-2.11 ± 0.22
UUGCAGCAAUAUUACGAAUU	-2.18 ± 0.18	-0.985 ± 0.19
UUGCAGCAAUAUUACGACGA	0.0944 ± 0.089	0.407 ± 0.12
UUGCAGCAAUAUUACGAGUU	-4.24 ± 0.27	-3.36 ± 0.37
UUGCAGCAAUAUUACGAUAU	-4.06 ± 0.32	-1.78 ± 0.24
UUGCAGCAAUAUUACGAUCC	-3.64 ± 0.47	-1.68 ± 0.35
UUGCAGCAAUAUUACGCACA	-0.577 ± 0.11	0.406 ± 0.15
